Eight molecules from patent publication US20250289873A1 (BROADWING BIO, published 2025) can be followed below.

Changes are numbered by the printed parent chain.

Test [1] deals with T1, human CFHL3-His (ATX-P-58) (human, UniProt Q02985 19-330).
T1 construct: also called human CFHR3 protein; CFHR3; not shown: C-terminal His tag (and linker)
T1 sequence (looked up): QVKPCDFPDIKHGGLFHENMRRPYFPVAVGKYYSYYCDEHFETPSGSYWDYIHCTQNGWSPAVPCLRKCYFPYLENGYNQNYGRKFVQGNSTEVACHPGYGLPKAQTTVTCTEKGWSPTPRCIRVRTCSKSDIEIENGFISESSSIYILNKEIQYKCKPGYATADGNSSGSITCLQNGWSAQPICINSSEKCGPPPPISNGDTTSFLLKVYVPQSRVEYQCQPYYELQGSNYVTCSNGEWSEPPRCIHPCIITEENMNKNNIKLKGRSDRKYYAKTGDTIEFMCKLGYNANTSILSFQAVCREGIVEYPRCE
As to the kind of experiment: Carterra LSA biosensor, mAb printed on chip, cutoff set by isotype control. Here is the method:
(§1) Experiments were also conducted to determine the reactivity of the CFHR4 antibodies with the human CFHR3 protein (FIG. 9). The binding experiments were performed on Carterra LSA with a running buffer of PBS pH 7.40, 1% BSA, 0.05% Tween20. Antibodies were covalently printed on an HC30M chip. Chip was activated with 33 mM s-NHS and 133 mM EDC in 100 mM MES pH 5.5 for 7 minutes. Antibodies at 10 mg/ml in acetic acid buffer pH 4.5 were used for printing for 10 min. The printed chip was then quenched with 1 M ethanolamine pH 8.5 for 7 min. For the reactivity assay, ATX-P-58, human CFHL3-His, at 550 nM was tested with 5 min association followed by 15 min dissociation. Results were processed and analyzed in Carterra LSA Kinetics Software. The data was referenced with the interstitial reference spots and double-referenced to a buffer cycle, and then the responses (nm) after association were reported. Isotype control was used to determine the cutoff response for positive binding.
as §1, with “CFHL-1 (Y402H)” for “CFHR3”, “10).” for “9).”, “ATX-P-421,” for “ATX-P-58,”, “CFHL1-Y402H-His,” for “CFHL3-His,”, “380” for “550”

Test [2] concerns the target T2, Human CFHL1-Y402H-His (ATX-P-421) (human).
T2 construct: also called human CFHL-1 (Y402H) protein
T2 chain: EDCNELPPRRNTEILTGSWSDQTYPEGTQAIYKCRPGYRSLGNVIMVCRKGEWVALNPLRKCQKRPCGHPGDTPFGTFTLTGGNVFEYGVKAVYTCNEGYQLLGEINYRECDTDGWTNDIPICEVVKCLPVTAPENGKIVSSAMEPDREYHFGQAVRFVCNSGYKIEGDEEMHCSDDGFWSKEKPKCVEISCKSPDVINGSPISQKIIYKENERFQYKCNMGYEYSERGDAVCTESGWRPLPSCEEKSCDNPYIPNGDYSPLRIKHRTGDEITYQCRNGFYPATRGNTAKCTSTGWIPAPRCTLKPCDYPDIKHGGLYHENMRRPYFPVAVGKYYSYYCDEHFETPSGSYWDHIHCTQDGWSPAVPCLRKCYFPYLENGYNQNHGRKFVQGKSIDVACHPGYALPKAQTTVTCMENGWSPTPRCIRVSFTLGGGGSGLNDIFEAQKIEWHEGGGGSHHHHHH
The test is described as above. Here is the method:
as §1
as §1, with “CFHL-1 (Y402H)” for “CFHR3”, “10).” for “9).”, “ATX-P-421,” for “ATX-P-58,”, “CFHL1-Y402H-His,” for “CFHL3-His,”, “380” for “550”

The target of test [3] is T2, Human CFHL1-Y402H-His (ATX-P-421). Kind of test: Carterra LSA biosensor, mAb printed on chip, human CFHL1-Y402H-His at 380 nM. Here is the method:
as §1, with “CFHL-1 (Y402H)” for “CFHR3”, “10).” for “9).”, “ATX-P-421,” for “ATX-P-58,”, “CFHL1-Y402H-His,” for “CFHL3-His,”, “380” for “550”

B1: ATX-P-602 (antibody, human IgG1, kappa, N297A, V domains shown)
VH: not shown
VL: EIVLTQSPGTLSLSPGERATLSCRASQSVSSSYLAWYQQKPGQAPRLLIYGASSRATGIPDRFSGSGSGTQFTLTISSLQSEDFAVYYCQQYGSSPWTFGQGTKVDIKR
Consider B1, for which the binding result is reported as “no binding (tested: 550 nM)” in test [1] and “no binding (tested: 380 nM)” in test [2].

B2: ATX-P-598 (antibody, human IgG1, kappa, N297A, V domains shown)
VH: QVQLQESGPGLVKPSGTLSLTCAVSGGSISSSNWWSWVRQSPGKGLEWIGEIYHSGTTNYNPSLKSRVTISVDKSKNQFSLKLSSATAADTAVYYCARDRLRLGESSSDVFDIWGQGTMVTVSS
VL: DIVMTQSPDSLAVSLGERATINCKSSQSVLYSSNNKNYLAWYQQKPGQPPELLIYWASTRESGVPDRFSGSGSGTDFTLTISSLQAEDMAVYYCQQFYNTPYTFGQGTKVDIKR
On to B2, for which the binding result is “no binding (tested: 550 nM)” in test [1] and “no binding (tested: 380 nM)” in test [2].

B3: ATX-P-591 (antibody, V domains shown)
VH: QVQLVQSGAEVKKPGASVKVSCKASGYTFTSYGISWVRQAPGQGLEWMGWISAYNGNTNYAQKLQGRVTMTTDTSTSTAYMELRSLRSDDTAIYYCTRDLRGTAFDYWGQGTPVTVSS
VL: DIQMTQSPSSLSASVGDRVTITCRASQSINTYLNWYQQKPGKAPKLLIYAASSLQSGVPSRFSGSGSGTDFTLTISSLQPEDFATYSCQHSFTTPFTFGPGTKLEIKR
In the case of B3, the binding result in test [3] is reported as “binds”; in test [1], “no binding (tested: 550 nM)”.

B4: ATX-P-607 (antibody, human IgG1, kappa, N297A, V domains shown)
VH: QVQLVQSGAEVKKPGASVKVSCKASGYTFTSYYMHWVRQAPGQGLEWMGIINPSGGSTSYAQKFQGRVTMTRDTSTNTVYMELSSLRSEDTAVYYCARDPEYSSAFDIWGQGTMVTVSS
VL: B3 VL with V19G, N30R, T31S, S87Y, H90Q, F92Y, T93R, F96V, L104V, E105D
On to B4, for which the results for the binding result in test [1] and in test [2] were “no binding (tested: 550 nM)” and “no binding (tested: 380 nM)”, respectively.

B5: ATX-P-582 (antibody, human IgG1, kappa, N297A, V domains shown)
VH: QVQLQESGPGLVKPSGTLSLTCAVSGGSISISKWWSWVRQPPGKGLEWIGEIYHTGSTNYHPSLKSRVTISVDKSKNQFYLKLNSVTAADTAVYYCARDELRLGELSPSLDIWGQGTMVTVSS
VL: DIQMTQSPSSLSASVGDRVTITCRASQNINNYLNWFRQKPGKAPKLLIFAASSLQSGVPSRFSGSESGTDFTLTISSLQPEDFATYYCQQSYSTPLTFGGGTKVEIKR
Take B5: the values for the binding result in test [3] and in test [1] were “binds” and “no binding (tested: 550 nM)”, respectively.

B6: ATX-P-597 (antibody, human IgG1, kappa, N297A, V domains shown)
VH: QVQLVQSGAEVKKPGASVKVSCKASGYTFTNYYMQWVRQAPGQGLEWLGIIDPSGGSTTYAQKFQGRVTMTRDTSTSTVHMELRSLRSEDTAVYYCARDEGTDRPGWGYWGQGTLVTVSS
VL: DIQMTQSPSSLSASIGDRVTITCRASQSISSYLDWYQRKSGKAPKLLIYAASSLQSGVPSRFSGSGSGTDFTLTISSLQPEDFATYYCQQSYSTPLTFGGGTKVDIKR
On to B6, for which the binding result is recorded as “no binding (tested: 550 nM)” in test [1] and “no binding (tested: 380 nM)” in test [2].

B7: ATX-P-560 (antibody, human IgG1, kappa, N297A, V domains shown)
VH: QVQLQQSGPGLVKPSQTLSLTCAISGDSVSSNTAAWNWIRQSPSRGLEWLGRTYYRSKWYNDYAVSVKSRITINPDTSKNQFSLQLSSVTPQDTAIYYCASDNWNNGGPGFDPWGQGTLVTVSS
VL: DIQMTQSPSSVSTSVGDRVTITCRASQGISSWLAWYQQKPGKAPKLLISAASSLQSGVPSRFSGSGSGTDFTLTISTLQPEDFASYYCQQANSFPPTFGQGTRVEIKR
Turning to B7, the binding result is “no binding (tested: 550 nM)” in test [1] and “no binding (tested: 380 nM)” in test [2].

B8: ATX-P-601 (antibody, human IgG1, kappa, N297A, V domains shown)
VH: QVQLVQSGAEVKKPGASVKVSCKASGYTFTSYYMHWVRQAPGQGLEWMGIINPSGGSTNYAQKFQGRLTMTRDTSTNTVYMELSSLRSEDTAVYYCATDQSGGMDVWGKGTTVTVSS
VL: DIQMTQSPSSLSASVGDRVTITCRASQSINIYLNWYQQKPEKDPKLLIYAASSLQSGVPSRFSGSGSGTDFTLTISNLQPEDFATYYCQQSYSTPITFGQGTRLEIKR
Regarding B8, the binding result is recorded as “no binding (tested: 550 nM)” in test [1] and “no binding (tested: 380 nM)” in test [2].
